Experimental data: US20140087995A1 (published 2014)
Numbered stars: 1 amine (or outer) side, 2 acyl side, 3 side chain; on linkers, the order of the positions; unused ones are H or OH. Bridge positions count the residues as written; N and C are the ends. Side chains are listed from the residue outwards. Ends that are not written are not given here. * marks the point of attachment. C20 diacid = O=C(O)CCCCCCCCCCCCCCCCCCC(=O)*; γGlu = O=C(O)[C@H](CCC(=O)[*:2])N[*:1]

T1: rat calcitonin receptor (rat, UniProt P32214 25-516)
T1 construct: whole, on cells; Membranes of transiently transfected BHK tk'ts 13 cells; also called rCTR; rat calcitonin (a) receptor
T1 sequence (looked up): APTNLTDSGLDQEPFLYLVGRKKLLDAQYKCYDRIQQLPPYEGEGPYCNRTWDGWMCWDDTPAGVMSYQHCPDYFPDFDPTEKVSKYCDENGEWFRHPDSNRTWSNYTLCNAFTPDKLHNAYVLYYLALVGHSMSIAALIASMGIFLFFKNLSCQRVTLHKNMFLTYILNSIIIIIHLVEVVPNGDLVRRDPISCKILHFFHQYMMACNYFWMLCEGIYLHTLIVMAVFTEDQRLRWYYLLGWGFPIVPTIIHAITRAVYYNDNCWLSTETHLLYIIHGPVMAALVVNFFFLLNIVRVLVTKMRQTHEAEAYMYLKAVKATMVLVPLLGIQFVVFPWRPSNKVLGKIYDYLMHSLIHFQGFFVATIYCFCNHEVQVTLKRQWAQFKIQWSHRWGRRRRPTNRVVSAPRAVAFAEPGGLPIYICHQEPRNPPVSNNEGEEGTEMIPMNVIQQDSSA

T2: human calcitonin receptor (human, UniProt P30988 25-474)
T2 construct: whole, on cells; Membranes of stably transfected cells; also called hCTR; hCT
T2 sequence (looked up): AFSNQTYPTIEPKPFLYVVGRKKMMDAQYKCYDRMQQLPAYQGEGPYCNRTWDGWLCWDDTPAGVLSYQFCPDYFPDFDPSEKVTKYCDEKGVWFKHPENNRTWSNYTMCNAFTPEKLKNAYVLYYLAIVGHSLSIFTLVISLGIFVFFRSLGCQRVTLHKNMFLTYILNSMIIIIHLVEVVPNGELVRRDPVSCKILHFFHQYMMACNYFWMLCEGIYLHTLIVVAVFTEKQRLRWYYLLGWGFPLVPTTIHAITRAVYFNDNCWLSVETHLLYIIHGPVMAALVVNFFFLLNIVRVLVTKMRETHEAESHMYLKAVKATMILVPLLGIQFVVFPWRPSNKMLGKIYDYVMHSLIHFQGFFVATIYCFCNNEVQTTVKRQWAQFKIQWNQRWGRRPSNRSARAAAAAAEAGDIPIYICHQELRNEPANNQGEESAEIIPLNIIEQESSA

T3: rat amylin receptor (rat calcitonin receptor + rat RAMP 3) (rat, UniProt P32214 25-516; Q9JJ73 23-147)
T3 construct: whole, on cells; Membranes of transiently transfected BHK tk'ts 13 cells; also called rAmylin-R; rat amylin 3(a) receptor
T3 sequence (looked up) 1: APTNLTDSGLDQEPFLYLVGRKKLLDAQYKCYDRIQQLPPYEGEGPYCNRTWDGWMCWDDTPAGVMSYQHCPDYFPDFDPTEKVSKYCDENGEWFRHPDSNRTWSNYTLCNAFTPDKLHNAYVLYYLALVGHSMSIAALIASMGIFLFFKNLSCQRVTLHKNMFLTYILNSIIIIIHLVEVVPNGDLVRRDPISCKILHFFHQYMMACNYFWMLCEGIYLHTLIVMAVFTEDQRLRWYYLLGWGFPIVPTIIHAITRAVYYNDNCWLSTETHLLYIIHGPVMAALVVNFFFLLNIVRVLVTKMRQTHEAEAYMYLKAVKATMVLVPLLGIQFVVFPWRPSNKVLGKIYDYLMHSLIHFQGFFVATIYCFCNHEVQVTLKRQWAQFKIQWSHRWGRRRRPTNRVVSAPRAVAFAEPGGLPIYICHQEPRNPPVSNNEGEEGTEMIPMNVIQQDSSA
T3 sequence (looked up) 2: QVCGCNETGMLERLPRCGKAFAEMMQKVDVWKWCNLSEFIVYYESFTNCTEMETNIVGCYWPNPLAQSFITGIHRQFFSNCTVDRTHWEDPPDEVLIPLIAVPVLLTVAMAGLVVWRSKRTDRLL


Assays:
[1] = biological target: T1, rat calcitonin receptor; test: ratio of IC50 on rat calcitonin receptor to IC50 on rat amylin receptor (reference m40)
[2] = biological target: T2, human calcitonin receptor; test: ratio of IC50 on human calcitonin receptor to IC50 on human amylin receptor (reference m42), SPA competition
In short: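 Competition binding by SPA uses membrane preparations (35 ng/μL final) in pH 7.4 Hepes buffer with 1 mM CaCl2 and 5 mM MgCl₂. Incubation lasts 120 min at 25° C, and IC₅₀ comes from one-site fitting.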

[3] = biological target: T1, rat calcitonin receptor; test: SPA competition with 125I-calcitonin on membranes of BHK tk'ts 13 cells with rat calcitonin receptor (Assay VIII)
[4] = biological target: T3, rat amylin receptor (rat calcitonin …); test: SPA competition with 125I-rat amylin on membranes of BHK tk'ts 13 cells with rat calcitonin receptor + rat RAMP3 (Assay VI)

| Ratio rCT/rAmylin binding [1] | Ratio hCT/hAmylin binding [2] | IC50 [3] | IC50 [4] | Binder |
| --- | --- | --- | --- | --- |
| 63.2 | 13.3 | 10.4 nM | 0.164 nM | K([γGlu-C20 diacid])CNTATCATQRLAEFLRHSSPNFGAIPSSTNVGPETY-NH2 (disulfide 2-7; N-terminus assumed; SMILES CC[C@H](C)[C@H](NC(=O)[C@H](C)NC(=O)CNC(=O)[C@H](Cc1ccccc1)NC(=O)[C@H](CC(N)=O)NC(=O)[C@@H]1CCCN1C(=O)[C@H](CO)NC(=O)[C@H](CO)NC(=O)[C@H](Cc1c[nH]cn1)NC(=O)[C@H](CCCNC(=N)N)NC(=O)[C@H](CC(C)C)NC(=O)[C@H](Cc1ccccc1)NC(=O)[C@H](CCC(=O)O)NC(=O)[C@H](C)NC(=O)[C@H](CC(C)C)NC(=O)[C@H](CCCNC(=N)N)NC(=O)[C@H](CCC(N)=O)NC(=O)[C@@H](NC(=O)[C@H](C)NC(=O)[C@@H]1CSSC[C@H](NC(=O)[C@@H](N)CCCCNC(=O)CC[C@H](NC(=O)CCCCCCCCCCCCCCCCCCC(=O)O)C(=O)O)C(=O)N[C@@H](CC(N)=O)C(=O)N[C@@H]([C@@H](C)O)C(=O)N[C@@H](C)C(=O)N[C@@H]([C@@H](C)O)C(=O)N1)[C@@H](C)O)C(=O)N1CCC[C@H]1C(=O)N[C@@H](CO)C(=O)N[C@@H](CO)C(=O)N[C@H](C(=O)N[C@@H](CC(N)=O)C(=O)N[C@H](C(=O)NCC(=O)N1CCC[C@H]1C(=O)N[C@@H](CCC(=O)O)C(=O)N[C@H](C(=O)N[C@@H](Cc1ccc(O)cc1)C(N)=O)[C@@H](C)O)C(C)C)[C@@H](C)O, Synthetic acylated analogue of human amylin) |
| 79.8 | 100 | 216 nM | 2.7 nM | {C20 diacid-γGlu}-GRCNTATCATQRLAHFLRHSSPNFGAIPSSTNVGSNTY-NH2 (disulfide 3-8; SMILES CC[C@H](C)[C@H](NC(=O)[C@H](C)NC(=O)CNC(=O)[C@H](Cc1ccccc1)NC(=O)[C@H](CC(N)=O)NC(=O)[C@@H]1CCCN1C(=O)[C@H](CO)NC(=O)[C@H](CO)NC(=O)[C@H](Cc1c[nH]cn1)NC(=O)[C@H](CCCNC(=N)N)NC(=O)[C@H](CC(C)C)NC(=O)[C@H](Cc1ccccc1)NC(=O)[C@H](Cc1c[nH]cn1)NC(=O)[C@H](C)NC(=O)[C@H](CC(C)C)NC(=O)[C@H](CCCNC(=N)N)NC(=O)[C@H](CCC(N)=O)NC(=O)[C@@H](NC(=O)[C@H](C)NC(=O)[C@@H]1CSSC[C@H](NC(=O)[C@H](CCCNC(=N)N)NC(=O)CNC(=O)CC[C@H](NC(=O)CCCCCCCCCCCCCCCCCCC(=O)O)C(=O)O)C(=O)N[C@@H](CC(N)=O)C(=O)N[C@@H]([C@@H](C)O)C(=O)N[C@@H](C)C(=O)N[C@@H]([C@@H](C)O)C(=O)N1)[C@@H](C)O)C(=O)N1CCC[C@H]1C(=O)N[C@@H](CO)C(=O)N[C@@H](CO)C(=O)N[C@H](C(=O)N[C@@H](CC(N)=O)C(=O)N[C@H](C(=O)NCC(=O)N[C@@H](CO)C(=O)N[C@@H](CC(N)=O)C(=O)N[C@H](C(=O)N[C@@H](Cc1ccc(O)cc1)C(N)=O)[C@@H](C)O)C(C)C)[C@@H](C)O, Synthetic acylated analogue of human amylin, extended by Gly at position -1; also called compound 99) |
